This note sets out measurements from US20120276102A1 (Pfizer, published 2012).

Positions count from the first letter of the chain named.

To fix the notation:
T1: human gamma (γ) common chain expressed on CHO cells (human, UniProt P31785 23-369)
T1 construct: whole, on cells; Control protein; also called human IL-2R-γ common subunit; human γ-common
T1 sequence (looked up): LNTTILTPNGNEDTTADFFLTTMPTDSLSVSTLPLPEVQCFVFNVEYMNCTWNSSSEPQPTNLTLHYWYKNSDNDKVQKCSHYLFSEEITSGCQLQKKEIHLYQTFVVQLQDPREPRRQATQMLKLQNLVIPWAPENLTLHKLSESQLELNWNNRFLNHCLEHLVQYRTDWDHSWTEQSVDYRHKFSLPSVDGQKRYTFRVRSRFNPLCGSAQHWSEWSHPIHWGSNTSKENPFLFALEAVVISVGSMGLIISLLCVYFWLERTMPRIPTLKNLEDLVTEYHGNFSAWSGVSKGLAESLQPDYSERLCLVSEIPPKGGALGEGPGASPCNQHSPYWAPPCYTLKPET

B1: AbR (antibody, human IgG1, V domains shown)
VH: QVQLQESGPGLVKPSETLSLTCAVSGYSISSGYYWGWIRQPPGKGLEWIGSISHTGNTYYNPPLKSRVTISVDTSKNQFSLKLSSVTAADTAVYYCARFMGFGRPEYWGQGTLVTVSS
VL: SSELTQDPAVSVALGQTVRITCQGDSLRTYYASWYQQKPGQAPVLVIYGKHKRPSGIPDRFSGSSSGNTASLTITGAQAEDEADYYCVTRSVKGNPHVLFGGGTQLTVL
notes: CDR3 graft, residue limits derived as for m29; also called VH3/VL18; VH3DM/VL18
B2: AbU (antibody, human IgG1, V domains shown)
VH: B1 VH with F99G, M100G, F102I, G103S
VL: B1 VL with V88T, V92N
notes: CDR3 graft, residue limits derived as for m29; also called VHP/VL25; VHPTM/VL25
B3: AbT (antibody, human IgG1, V domains shown)
VH: B1 VH with F99G, M100G, F102I, G103S
VL: B1 VL with T89A, V92N
notes: CDR3 graft, residue limits derived as for m29; also called VHP/VL9; VHPTM/VL9
B4: AbS (antibody, V domains shown)
VH: B1 VH with F99G, M100G, F102I, G103S
VL: B1 VL with V88M, T89S, V92I, K93W
notes: CDR3 graft, residue limits derived as for m29; also called VHP/VL6; VHPTM/VL6

T6 sequence (Q9HBE5 20-232): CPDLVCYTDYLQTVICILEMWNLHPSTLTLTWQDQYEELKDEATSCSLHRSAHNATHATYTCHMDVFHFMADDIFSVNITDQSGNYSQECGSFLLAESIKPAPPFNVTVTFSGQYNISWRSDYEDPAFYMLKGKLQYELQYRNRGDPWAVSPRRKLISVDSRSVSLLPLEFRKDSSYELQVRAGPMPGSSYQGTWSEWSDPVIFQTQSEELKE

The first test deals with T1, human gamma (γ) common chain expressed …. The experiment in a line: cell-based ELISA on CHO cells transiently expressing human gamma common chain; HRP anti-human IgG, A450. In short, it runs like this:
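Binding read by TMB colour after HRP anti-human IgG (1 hr, RT), stopped with H₂SO₄. Before that, IgG-containing conditioned media, serially diluted in 5% milk/PBS/CaMg, were applied 1 hr at RT to CHO-PA-Dukx cells transfected 48 hr earlier.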
Background: ELISA stands for enzyme-linked immunosorbent assay.
Turning to B1, the binding result was “no binding (tested: 40 nM)”.

Take B2: the binding result is “no binding (tested: 40 nM)”.

Regarding B3, the binding result is “no binding (tested: 40 nM)”.

As for B4, the binding result is “no binding (tested: 40 nM)”.

In a further test the target is T2, murine IL-21R expressed on cells (murine, UniProt Q9JHX3 20-529). The experiment in a line: cell-based or functional assay.
Take B1: the “Neutralization of murine primary T cell Proliferation IC50” value came out at 130 pM.

With B2, the “Neutralization of murine primary T cell Proliferation IC50” value amounted to 1790 pM.

For the molecule B3, the “Neutralization of murine primary T cell Proliferation IC50” value turned out to be 610 pM.

B4: the “Neutralization of murine primary T cell Proliferation IC50” value stood at 20 pM.

The target in another test is T3, human IL-21R expressed on cells (human, UniProt Q9HBE5 20-538). The experiment in a line: cell-based or functional assay.
T3 sequence (Q9HBE5 20-538 limits assumed): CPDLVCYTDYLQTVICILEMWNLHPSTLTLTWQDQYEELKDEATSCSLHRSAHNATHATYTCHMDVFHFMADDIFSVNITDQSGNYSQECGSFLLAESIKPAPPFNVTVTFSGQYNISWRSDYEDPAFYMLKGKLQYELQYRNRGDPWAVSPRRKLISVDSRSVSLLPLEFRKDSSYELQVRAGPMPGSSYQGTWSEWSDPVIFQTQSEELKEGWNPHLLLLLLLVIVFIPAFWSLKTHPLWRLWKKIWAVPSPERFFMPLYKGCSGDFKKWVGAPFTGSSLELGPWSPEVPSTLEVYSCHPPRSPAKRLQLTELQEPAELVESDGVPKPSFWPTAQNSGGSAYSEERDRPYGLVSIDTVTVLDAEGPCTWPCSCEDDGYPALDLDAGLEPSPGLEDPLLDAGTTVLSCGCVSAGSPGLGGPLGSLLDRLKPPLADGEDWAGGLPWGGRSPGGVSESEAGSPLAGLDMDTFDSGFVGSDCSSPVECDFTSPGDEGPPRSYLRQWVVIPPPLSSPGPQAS
On to B1, for which the “Neutralization of human primary T cell Proliferation IC50” value was 40 pM.

As to B2, the “Neutralization of human primary T cell Proliferation IC50” value stood at 30 pM.

B3: the “Neutralization of human primary T cell Proliferation IC50” value stood at 30 pM.

Regarding B4, the “Neutralization of human primary T cell Proliferation IC50” value was determined as 60 pM.

The target of another test is T1, human gamma (γ) common chain expressed …. The experiment in a line: cell ELISA, CHO cells.
Take B1: the “A450 (13 nM Ab)” value worked out at 0.109 A450.

In the case of B2, the “A450 (13 nM Ab)” value was 0.104 A450.

B3: the “A450 (13 nM Ab)” value is 0.102 A450.

As to B4, the “A450 (13 nM Ab)” value came to 0.118 A450.

The next test addresses T4, cynomolgus monkey IL-21R expressed on cells (cynomolgus monkey, UniProt G7Q0S8 41-559).
T4 construct: whole, on cells
Nature of the test: cell ELISA, CHO cells.
Turning to B1, the “A450 (13 nM Ab)” value is 1.35 A450.

For the molecule B2, the “A450 (13 nM Ab)” value was 1.31 A450.

B3: the “A450 (13 nM Ab)” value was 1.22 A450.

In the case of B4, the “A450 (13 nM Ab)” value stood at 1.22 A450.

The next test has as its target T5, rat IL-21R expressed on cells (rat).
T5 construct: whole, on cells
The experiment in a line: cell ELISA, CHO cells.
In the case of B1, the “A450 (13 nM Ab)” value amounted to 1.11 A450.

For B2, the “A450 (13 nM Ab)” value turned out to be 0.927 A450.

As for B3, the “A450 (13 nM Ab)” value was 0.994 A450.

Turning to B4, the “A450 (13 nM Ab)” value was determined as 1.17 A450.

The next test has as its target T3, human IL-21R expressed on cells. The experiment in a line: cell ELISA, CHO cells.
As to B1, the “A450 (13 nM Ab)” value was determined as 1.33 A450.

In the case of B2, the “A450 (13 nM Ab)” value was determined as 1.29 A450.

For the molecule B3, the “A450 (13 nM Ab)” value came to 1.08 A450.

Turning to B4, the “A450 (13 nM Ab)” value was found to be 1.02 A450.

Another test has as its target T6, human IL-21R extracellular domain His-Flag fusion protein (human, UniProt Q9HBE5 20-232).
T6 construct: Biotinylated in the HTRF screen; also called hIL-21R-H/F; human IL-21R-H/F
The experiment in a line: SPR, Ab captured on anti-human IgG, replicate experiment. The protocol: (§1) The kinetics of binding of anti-IL-21R antibodies to human and murine IL-21R-H/F was tested on a BIACORE™ surface plasmon resonance instrument. Anti-human IgG antibodies (Invitrogen Corporation) were immobilized onto a research-grade carboxy-methyl-dextran chip (CM5) using standard amine coupling. The surface was activated with EDC/NHS for 7 min at a flow of 20 μl/min. The first flow cell was used as a reference surface to correct for bulk refractive index, matrix effects, and nonspecific binding. The anti-human-Fc antibody was diluted to 20 μg/ml in 10 mM sodium acetate buffer (pH 5.0), and 2950-3405 resonance units (RU) were captured on each of the four flow cells. Remaining activated groups were blocked with 1.0 M ethanolamine-HCl (pH 8.5).
(§2) Anti-IL-21R antibodies were diluted to 0.1-0.2 μg/ml in HBS/EP buffer supplemented with 0.2% bovine serum albumin and loaded onto the BIACORE™ chip. Following a brief washing period, solutions of 0-100 nM human IL-21R-H/F or 10-500 nM murine IL-21R-H/F were injected over the chip at a flow rate of 50 μl/min. The association phase was run for 3 min for human and murine IL-21R kinetics, and the dissociation phase was monitored for 15 min for hIL-21R and for 5 min for mIL-21R, followed by two 10 μl injections and one 30 μl injection of glycine (pH 1.5), to regenerate a fully active capturing surface. All binding experiments were done at 25° C. in HBS/EP buffer, and the sample rack was kept at 15° C. Blank and buffer effects were subtracted for each sensorgram using double referencing.
On the technique in general: SPR reads the build-up and loss of mass on a sensor chip optically.
For B1, the Kd came out at 394 pM, the koff amounted to 9.76e-05 s⁻¹ and the kon came out at 248000 M⁻¹ s⁻¹.

Molecule B2 displayed a Kd of 329 pM, a koff of 7.83e-05 s⁻¹ and an on-rate constant (kon) of 238000 M⁻¹ s⁻¹.

B3 returned a Kd of 272 pM, a koff of 7.42e-05 s⁻¹ and an on-rate constant (kon) of 273000 M⁻¹ s⁻¹.

For the molecule B4, the Kd is 1510 pM, the dissociation rate constant (koff) came to 0.000305 s⁻¹ and the on-rate (kon) stood at 202000 M⁻¹ s⁻¹.

In a further test the target is T4, cynomolgus monkey IL-21R expressed on …. The experiment in a line: cell-based ELISA on CHO cells transiently expressing cynomolgus monkey IL-21R; HRP anti-human IgG, A450.
With B1, the “EC50 (read off the curve)” value was ~1000 pM.

In the case of B2, the “EC50 (read off the curve)” value is ~700 pM.

As to B3, the “EC50 (read off the curve)” value was ~600 pM.

For the molecule B4, the “EC50 (read off the curve)” value was ~500 pM.

The target of another test is T7, murine IL-21R extracellular domain His-Flag fusion protein (murine, UniProt Q9JHX3 20-237).
T7 construct: Biotinylated in the ELISAs; also called mIL-21R-H/F; murine IL-21R-H/F
The experiment in a line: SPR, Ab captured on anti-human IgG. The protocol:
as §1, §2
With B1, the Kd was determined as 64500 pM, the koff stood at 0.00493 s⁻¹ and the kon was found to be 76500 M⁻¹ s⁻¹.

Turning to B2, the affinity, expressed as Kd, was 44200 pM; the koff came to 0.00434 s⁻¹; the kon came out at 98100 M⁻¹ s⁻¹.

B3: the equilibrium dissociation constant (Kd) stood at 15700 pM, the off-rate (koff) is 0.00331 s⁻¹ and the kon worked out at 211000 M⁻¹ s⁻¹.

In turn, B4 displayed a dissociation constant (Kd) of 16700 pM, an off-rate constant (koff) of 0.00332 s⁻¹ and an on-rate constant (kon) of 199000 M⁻¹ s⁻¹.

The next test has as its target T6, human IL-21R extracellular domain …. Nature of the test: SPR, Ab captured on anti-human IgG. As for the experimental part: as §1, §2
The molecule B1 gave an equilibrium dissociation constant (Kd) of 567 pM, a koff of 9.61e-05 s⁻¹ and an on-rate constant (kon) of 170000 M⁻¹ s⁻¹.

On to B2, for which binding was put at a Kd of 440 pM, the koff is 8.18e-05 s⁻¹ and the kon was found to be 186000 M⁻¹ s⁻¹.

B3 gave an equilibrium dissociation constant (Kd) of 379 pM, a koff of 6.78e-05 s⁻¹ and a kon of 179000 M⁻¹ s⁻¹.

For B4, the equilibrium dissociation constant (Kd) came to 2020 pM, the dissociation rate constant (koff) amounted to 0.000291 s⁻¹ and the association rate constant (kon) came out at 144000 M⁻¹ s⁻¹.

The target in the next test is T2, murine IL-21R expressed on cells. The experiment in a line: cell-based or functional assay. The source holds these as a separate data set.
As to B1, the “Murine IL-21R-BaF3 Proliferation IC50” value amounted to 302 pM.

Turning to B2, the “Murine IL-21R-BaF3 Proliferation IC50” value is 184 pM.

For B3, the “Murine IL-21R-BaF3 Proliferation IC50” value was 93 pM.

As to B4, the “Murine IL-21R-BaF3 Proliferation IC50” value stood at 40 pM.

The target in a further test is T3, human IL-21R expressed on cells. The experiment in a line: cell-based or functional assay. The source holds these as a separate data set.
Take B1: the “Human IL-21R-BaF3 Proliferation IC50” value was found to be 870 pM and the “Human IL-21R-TF1 Proliferation IC50” value was determined as 3940 pM.

In the case of B2, the “Human IL-21R-BaF3 Proliferation IC50” value stood at 730 pM and the “Human IL-21R-TF1 Proliferation IC50” value was found to be 3130 pM.

With B3, the “Human IL-21R-BaF3 Proliferation IC50” value worked out at 670 pM and the “Human IL-21R-TF1 Proliferation IC50” value is 3260 pM.

As for B4, the “Human IL-21R-BaF3 Proliferation IC50” value is 1530 pM and the “Human IL-21R-TF1 Proliferation IC50” value was found to be 5000 pM.

For a further test the target is unchanged. The experiment in a line: cell-based or functional assay. This is another data set of the same source.
As for B1, the “Neutralization of B cell proliferation IC50” value was determined as 220 pM.

Consider B2, for which the “Neutralization of B cell proliferation IC50” value amounted to 130 pM.

Consider B3, for which the “Neutralization of B cell proliferation IC50” value was determined as 140 pM.

B4: the “Neutralization of B cell proliferation IC50” value was found to be 440 pM.

The Kd is a measure of binding affinity in units of concentration. What is called koff is the rate constant with which the complex falls apart. By kon is commonly meant the rate constant with which the complex forms. By EC50 (read off the curve) is commonly meant the midpoint of the concentration-response curve.
